Assay: yeast display, Sf9 membrane polyspecificity reagent, FACS + sequencing; frameworks hold sequencing errors
Procedure, shortened: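 Nanobodies came from a synthetic yeast display library in Saccharomyces cerevisiae BJ5465, induced with galactose for 36–48 hours and stained for 1 hour at 4 °C with 10% biotinylated, detergent-solubilized Sf9 membrane reagent. Cells were enriched on streptavidin microbeads and then FACS-sorted, with low and high (top ~1%) gates set on anti-HA fluorescence for expression and streptavidin fluorescence for reagent binding. Each polyreactivity label reflects the gate a clone came from. Genes were amplified by colony PCR, sequenced by MiSeq 2 × 250 and filtered by CDR length.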
In the case of “QDQLVESGGGLVQAGGSLRLSCAASGSTFFRNAMGWYRQAPGKERELVASITSGGNTKYADSVKGRFTISCDNAKNTVYVQMNSLKPEDTAVYYCAAQFYHFARYSRLYNSWGQGTQVTVSS”, the “polyreactivity (PSR sort gate)” value is reported as “low polyreactivity”.
With “QDQLVESGGGLVQAGGSLRLSCAASGSTFHPYAMGWYRQAPGKERELVAAITFSGGSTYADSVKGRFTISRDNAKNTVYLQMNSLKPEDNAVYYCAAEWWYWRGWRDYWGQGTQVTVSS” the “polyreactivity (PSR sort gate)” value was “low polyreactivity”.
With “QDQLVESGGGLVQAGGSLRLSCAASGSTFKYNAMGWYRQAPGQERELVAAITSGGSTDYADSVKGRFTISRDNAMNHVYFQMNLLNPEDTAVYYCNDDIYPHDGYPWQGDYDYWGQGTQVTVSS” the “polyreactivity (PSR sort gate)” value was “low polyreactivity”.
For “QDQLVESGGGLVQAGGSLRLSCAASGSTFPDYAMGWYRQAPGKERELVAAISRSGGRTYYADSVKGRFTISRDNAKNTVYLQMNSLKPDDTAVYYCATSRVRSAGRDYWGQGTQVTVSS”, the “polyreactivity (PSR sort gate)” value was “high polyreactivity”.
In the case of “QDQLVESGGGLVQAGGSLRLSCAASGSTFSKNTMGWYRQAPGKERELVAAITTRGSSTYYADSVKGRFTISRDNAKNTVYLQMNSLKPEDTAVYYCNAPYRVTGGRYRWYDYWGQGTQVTVSS”, the “polyreactivity (PSR sort gate)” value is reported as “high polyreactivity”.
With “QDQLVESGGGLVQAGGSLRLSCAASGSTFSWYTMGWYRQAPGKERELVAAISKRGGSTYYADSVKGRFTISRDNAKNTVYLQMNSLKPEDTAVYYCNKDDERGKLYYWGQGTQVTVSS” the “polyreactivity (PSR sort gate)” value was “high polyreactivity”.
In the case of “QDQLVESGGGLVQAGGSLRLSCAASGSTFVKNAMGWYRQAPGKERELVATISKSAGRTYYADSVKGRFTISRDNAKNTVYLQMNSLKPEDTAVYYCNVVQKRDFDYWGQGTQVTVSS”, the “polyreactivity (PSR sort gate)” value is reported as “high polyreactivity”.
For “QDQLVESGGGLVQAGGSLRLSCAASGSTFVRSVMGWYRQAPGKERELVAAISRRGGSTYYADSVKGRFTISRDNAKNTVYLQMNSQKPEDTAVYYCARTVGYRTLLESDSWGQGTQVTVAS”, the “polyreactivity (PSR sort gate)” value was “high polyreactivity”.
For “QDQLVESGGGLVQAGGSLRLSCAASGSTFVRYDMGWYRQAPGKERELVADISWSGVSTYADSVKGRFTISRDNAKNTVYLQMNSLKPEDTAVYYCAKDSDLYQRGGYYWGQGTQVTVSS”, the “polyreactivity (PSR sort gate)” value was “low polyreactivity”.
For “QDQLVESGGGLVQAGGSLRLSCAASGSTIRANAMGWYRQATGKERELVAAITKNGGSTYYADSVKGRFTISRDNAKNTVYLQMNSLKPEDTAVYYCAARRSSRRPPYYYWGQGTQVTVSS”, the “polyreactivity (PSR sort gate)” value was “high polyreactivity”.
With “QDQLVESGGGLVQAGGSLRLSCAASGSTLRRYAMGWYRQAPGKERELVAAISGSGDSTYYADSVKGRFTISRDNAKNTVYLQMNSLKPEDTAVYYCNAVYAFNGYDYWGQGTQVTVSS” the “polyreactivity (PSR sort gate)” value was “low polyreactivity”.
With “QDQLVESGGGLVQAGGSLRLSCAASGSTLRYYAMGWYRQAPGKERELVAAITYSAGRTSYADSVKGRFTISRDNAKNTVYLQMNSLKPEDTAVYYCATQWHSYLRRYDYWGQGTQVTVSS” the “polyreactivity (PSR sort gate)” value was “low polyreactivity”.
With “QDQLVESGGGLVQAGGSLRLSCAASGSTLYSNTMGWYRPAPGKERELVAAICWSGASTYYADSVKGRFSISRDNAKNTVYLQMNSLKPEDTAVYYCAAGAYRNWGLYYYWGQGTQVTVSS” the “polyreactivity (PSR sort gate)” value was “high polyreactivity”.
In the case of “QDQLVESGGGLVQAGGSLRLSCAASGSTYYYAMGWYRQAPGKERELVAAIRSGSRTYADSVKGRFTISRDNAKNTVYLQMNSLKPEDTAVYYCAATTWRHNFYSWGQGTQVTVSS”, the “polyreactivity (PSR sort gate)” value is reported as “high polyreactivity”.
For “QDQLVESGGGLVQAGGSLRLSCAASGYIFITKAMGLNRQAPGKERELVAAINSGGSTYYADSVKGRFTISRDNAKNTVYLQMKSLKPEDTAVYYCAAEYWVYYWHYYDYWGQGTQVTVSS”, the “polyreactivity (PSR sort gate)” value was “high polyreactivity”.
For “QDQLVESGGGLVQAGGSLRLSCAASGYTFAYYAMGWYRQAPGKERELVARITSGGRTYYADSVKGRFTISRDNAKNTVYLQMNSLKPEDTAVYYCNAAWPFRYRRYDYWGQGTQVSVSS”, the “polyreactivity (PSR sort gate)” value was “high polyreactivity”.
In the case of “QDQLVESGGGLVQAGGSLRLSCAASRRTFSNYAMGWYRPAPGKERELVAAISGTGDNTYYADSVKVRFTISRDNANYTVYLQMNSLKPEDTAVYYCNTVYYGWPRCYGYWGQGTQVTVSS”, the “polyreactivity (PSR sort gate)” value is reported as “high polyreactivity”.
For “QDQLVESGGGLVQAGGSLRLSCAASVSIFWSYAMGRSRQAPGKEMELVASITRSGGSTYYADSVKGRFTISRDNAKNTVYLQMNSLKPEDTAVYYCNARRTTRWGSSKYEYDYCGQGTQVTVSS”, the “polyreactivity (PSR sort gate)” value was “high polyreactivity”.
For “QDQLVESGGGLVQAGGSLRLSCAAYGYTFPWYAMGWYRQAPGKERELVAAISDTGTTNYADSVKGRFTISRDNAKNTVYLQMNSLKPEDTAVYYCNAKVTSYWYYPFNYWGQGTQVTVSS”, the “polyreactivity (PSR sort gate)” value was “low polyreactivity”.
In the case of “QDQLVESGGGLVQAGGSLRLSFAASGSIFGVNALGWYRQAPGKERELVAAISARGGSTYYADSVKGRFTISRDNAKNTVYLQMNSQKPEDTAVYYCAATFRARPRENYWGQGTQVTVSS”, the “polyreactivity (PSR sort gate)” value is reported as “high polyreactivity”.
In the case of “QDQLVESGGGLVQAGGSLRLSFAASGSTFANYAMVWYRQAPGKEREWVAAISFSTVSTYYADSVKGRFTISRDNAKNTVYIQMNSLKPEDTAVYYCNTYYYGSRPSEDYWGQGTQVTVSS”, the “polyreactivity (PSR sort gate)” value is reported as “high polyreactivity”.
With “QDQLVESGGGLVQAGGSLRLSFAASGSTFVRYAMVWYRQAPGKERELVAAISRSGGSTYYADSVKGRFTISRDNAKNTVYLQMNSLKPEDTAVYYCAARLVYSGRDRGYDYWGQGTQVTVSS” the “polyreactivity (PSR sort gate)” value was “high polyreactivity”.
With “QDQLVESGGGLVQAGGSLRLSFAASGSTFWYNDMGWYRQAPGKERELVASISWSGGDTYYADSVKGRFTISRDNAKNSVYLQMNSLKPEDTEVYYCAKGNNWISRLMDYWGQGTQVTVSS” the “polyreactivity (PSR sort gate)” value was “low polyreactivity”.
With “QDQLVESGGGLVQAGGSLRLSIAASVRIFYANAMGWYRQAPGQERELVAAISSGGSTYYADSVKGRFTISRDNAKNTVYLQMNSLKPEDTAVFYCAVYTHKKVRPEYDYWGQGTQVTVSS” the “polyreactivity (PSR sort gate)” value was “low polyreactivity”.
For “QDQLVESGGGLVQAGGSLSLICAASGFNFALYAMGWYRQAPGKERELVAAINWSGGRTYYADSVKGRFTISRDNAKNTVYLQMNSLKPEDTAVYYCNRRAFSPYAANYYYWGQGTQVTVSS”, the “polyreactivity (PSR sort gate)” value was “high polyreactivity”.
With “QDQLVESGGGLVQAGGSLSLSCAASGRTFAVYAMGWYRQAPGKEMELVAAITQSGGSTYYADSVKGRFTISRDNAKNTVYLQINSMKPEDTAVYYCAKTGRFPYTAGQSFGYDYWGQGTQVTVSS” the “polyreactivity (PSR sort gate)” value was “low polyreactivity”.
In the case of “QDQLVESGGGLVQAGGTLRLSCAASGRIFPYNAMGWYRQAPGKERQLVAAISKSGVRTYYADSVKGRFTISRDNAKNTVYLQMNSLNPEETAVYYCAKLSPYGGDVGASEGPEYDYWGQGTQVTVSS”, the “polyreactivity (PSR sort gate)” value is reported as “high polyreactivity”.
With “QDQLVESGGGLVQAGGTLRLSCAASGSTFARYAMGWYRQAPGKERELVAAISRRGGSTYYADSVKGRFTISRDNAKITVDLQMNSLKPEDTAVYSCAARYGIISYLEYDYWGQGTQVTVSS” the “polyreactivity (PSR sort gate)” value was “high polyreactivity”.
For “QDQLVESGGGLVQAGVSLRLSCAASGSIFNRNAMGWYRQAPGKERELVADISWSGGSTYYADSVKGRFTISRDNAKNTVYLQMNSLKPEDTAVYYCADKSTGRWWRAGYDYWGQGTQVTVSS”, the “polyreactivity (PSR sort gate)” value was “high polyreactivity”.
In the case of “QDQLVESGGGLVQAGVSLRLSCPASGYNFDYYVMGWYRQAPGKERELVAAISSSGGSTYYADSVKGRFTISRDNAKNTVYLQMNSLKPEDTAVYYCATKPYPYYLYYYWGQGTQVTVSS”, the “polyreactivity (PSR sort gate)” value is reported as “high polyreactivity”.
With “QDQLVESGGGLVQARGSLRLRCAASGFIFIFNAMGWYRPAPGKERELVAAIDTSDDSTYYADSVKGRFTISRDNGKNTVYLQLNSLKPEDTAVYYCAAEELSNYEYWGQGTQVTVSS” the “polyreactivity (PSR sort gate)” value was “low polyreactivity”.
In the case of “QDQLVESGGGLVQARGSLRLSSAATGSIFGTKAKGWYRQATGKEKEYDAAIDYSGSITRYADSVKGRFTISRDLSKNTVYLKMNSLKPEDTAVYYCAARSYAKDWGGYNYWGQGTQGTVSS”, the “polyreactivity (PSR sort gate)” value is reported as “high polyreactivity”.
For “QDQLVESGGGLVQPGGSLRLSCAASGSTFANYAMGWYRQAPGNERQLVAALDHSGGSTYYADSVKGRFTISRDNAKNPVYLQMNSLKPEDTAVYYCNVVNGWLDVSSPDDSLAYLYDYWGQGSQVTVSS”, the “polyreactivity (PSR sort gate)” value was “low polyreactivity”.
In the case of “QDQLVESGGGLVQSGGSLLLSCAPSGSTFVWYAMGWYRQERGKEMEFDATISWSDGSTYYADSVKGRFTISRDNPKNTVYLQMNILKPEDTAVYYCAAEQYGYYYSLWEYDNIWEGYWGPGTQVTVSS”, the “polyreactivity (PSR sort gate)” value is reported as “low polyreactivity”.
In the case of “QDQLVESGGGSVQAGGSLRLSCAAYGRIYILYAMGWYRQAPGQERELVAAISWSGGSTYYADSVKGRFTISRDNAKKTVDGQRNSLKPEYTAVYYCNVVSKYKHTYDFDYWGQGTQVNVSS”, the “polyreactivity (PSR sort gate)” value is reported as “high polyreactivity”.
For “QDQLVESGGGVVQAGGSLRLSCAASGRIVGSKASGVSIEAPRKESEFVAAISSCSRTYYADSVKGLFSISRDNAKNTVYLQMNSLKPEDTAVYYCAKRGYFYSHRHGYEYGGQGTQVTVSS”, the “polyreactivity (PSR sort gate)” value was “high polyreactivity”.
For “QDQLVESGGGVVQAGGSLRLSCDASGFIFYRYAMGWSRQAPGKERELLAAISRSGGSTYYADSVKRRFTISRDNAKYTVYLQLKSLKPEDTAVYYCATTGQRNLYLVNYSGQGTQVTVSS”, the “polyreactivity (PSR sort gate)” value was “low polyreactivity”.
For “QDQLVESGGRLVQAVGSLRLSCAASGRIFTDYTMGWYRQAHGKERELVAAISYSGGSTYYADSVKGRFTISRDNAKNTVYLQMNSLKPEDTAVYYCNKDYYVHDGYGYWGQGTQVTVSS”, the “polyreactivity (PSR sort gate)” value was “low polyreactivity”.
In the case of “QDQLVESGGSLVQAGGSLRLSCASSGSIFKGNVMGCYRQAPGKERELVAAITWSAGSTYYADSVKGRFTISRDNAKNTVYLQMNRLKPEDTAVYYCNTDRYHGVDFDYWGQGTQVSVSS”, the “polyreactivity (PSR sort gate)” value is reported as “high polyreactivity”.
With “QDQLVESGGVLVQAGGSLRLSCAASGSTFYYYAMGWYRQAPRKEREFVSSISSRRTSTYYADSVKGRLTISRDNAKNNVYLQMNSLKREDTAVYYCADTQYRSDGWRYDYWGQGTQVTVSS” the “polyreactivity (PSR sort gate)” value was “high polyreactivity”.
For “QDQLVESGGVLVQARGSLRLSCAASASTLPGYAMGWYRQAPGKERELVAAISSSGTSTYYADSVKGRFTISRDNAKNTVYLQMNSLKPEDTAVYYCAAEGYRWVTAYYDYDEDYWGQGTQVTVSS”, the “polyreactivity (PSR sort gate)” value was “low polyreactivity”.
In the case of “QDQLVESGRGLVQAGGSLRLSCAASGNTFYRYTMGWYRQAPGNERELVDAISGRGGSTTYADSVKGRFTISRDPAKNTVYLQMKSLIPEDTAVYYCAAVTGGTAYYASTYYYWGQGTQVTVSL”, the “polyreactivity (PSR sort gate)” value is reported as “high polyreactivity”.
For “QDQLVESGVGLDQAGGSLRLSCAASGRIFRGSAMGWFSQAPGKEREFVAAITKNGGSTYYADSVNARFTISRDNANNTVYVQMNSLKPEDTAVYDCAVRAWDPDTGNSDYWGQGTQGTVSS”, the “polyreactivity (PSR sort gate)” value was “low polyreactivity”.

From the nanobody polyreactivity screen of Harvey et al. (2022)
